Assay results from patent publication US20220017591A1 (AstraZeneca / MedImmune, published 2022).
Numbering of substitutions follows the chain as printed. Where two headings read alike, the source gives them in different places. One block for each binder: values may come before it.

What was measured:
Assay in all cases: cell-based or functional assay
human RXFP1 [1] = molecular target: T1, human RXFP1 (human, UniProt Q9HBX9 1-757)
T1 sequence (looked up): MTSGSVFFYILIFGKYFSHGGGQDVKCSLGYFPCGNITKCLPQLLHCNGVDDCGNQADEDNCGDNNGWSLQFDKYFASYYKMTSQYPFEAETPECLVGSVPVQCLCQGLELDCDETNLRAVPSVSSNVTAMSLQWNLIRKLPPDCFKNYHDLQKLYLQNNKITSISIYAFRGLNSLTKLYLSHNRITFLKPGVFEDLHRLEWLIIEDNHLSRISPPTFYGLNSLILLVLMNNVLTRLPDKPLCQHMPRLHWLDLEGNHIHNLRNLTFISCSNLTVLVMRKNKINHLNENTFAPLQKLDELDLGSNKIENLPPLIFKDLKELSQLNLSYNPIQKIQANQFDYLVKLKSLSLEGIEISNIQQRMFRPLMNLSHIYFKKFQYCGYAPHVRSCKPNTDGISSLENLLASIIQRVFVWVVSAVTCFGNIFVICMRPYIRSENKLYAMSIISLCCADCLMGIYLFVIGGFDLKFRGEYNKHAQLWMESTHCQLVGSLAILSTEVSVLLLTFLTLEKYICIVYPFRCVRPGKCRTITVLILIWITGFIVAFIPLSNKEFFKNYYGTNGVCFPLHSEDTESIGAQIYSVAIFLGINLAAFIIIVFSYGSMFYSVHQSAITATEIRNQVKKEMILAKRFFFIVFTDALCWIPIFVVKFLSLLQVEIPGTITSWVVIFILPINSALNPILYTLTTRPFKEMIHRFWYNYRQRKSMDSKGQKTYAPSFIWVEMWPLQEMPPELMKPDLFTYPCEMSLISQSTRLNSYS

human RXFP2 [2] = molecular target: T2, human RXFP2 (human, UniProt Q8WXD0 1-754)
mouse RXFP1 [3] = molecular target: T3, mouse RXFP1 (mouse, UniProt Q6R6I7 1-758)
T3 sequence (looked up): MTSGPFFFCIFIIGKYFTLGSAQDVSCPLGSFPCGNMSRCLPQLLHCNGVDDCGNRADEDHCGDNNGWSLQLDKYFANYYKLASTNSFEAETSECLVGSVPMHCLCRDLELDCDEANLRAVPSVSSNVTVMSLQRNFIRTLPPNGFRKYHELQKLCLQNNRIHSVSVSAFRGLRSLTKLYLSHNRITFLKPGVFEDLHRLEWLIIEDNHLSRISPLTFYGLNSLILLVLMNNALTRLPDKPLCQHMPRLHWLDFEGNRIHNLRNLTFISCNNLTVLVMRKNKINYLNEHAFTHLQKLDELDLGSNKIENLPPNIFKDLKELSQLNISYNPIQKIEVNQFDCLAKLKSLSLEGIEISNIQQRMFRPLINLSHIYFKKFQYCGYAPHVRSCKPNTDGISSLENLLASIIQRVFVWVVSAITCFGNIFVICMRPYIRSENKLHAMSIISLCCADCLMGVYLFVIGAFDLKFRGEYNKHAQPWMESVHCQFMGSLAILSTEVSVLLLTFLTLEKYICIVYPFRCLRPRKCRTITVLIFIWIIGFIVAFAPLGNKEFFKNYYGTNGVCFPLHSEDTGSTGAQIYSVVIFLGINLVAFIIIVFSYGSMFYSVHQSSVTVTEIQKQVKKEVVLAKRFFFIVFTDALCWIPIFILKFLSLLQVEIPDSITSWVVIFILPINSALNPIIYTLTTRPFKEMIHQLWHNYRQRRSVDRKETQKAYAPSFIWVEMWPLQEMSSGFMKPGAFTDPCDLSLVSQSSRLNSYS

human RXFP1 [4] = molecular target: T1, human RXFP1; remark: listed apart in the source
human RXFP2 [5] = molecular target: T2, human RXFP2; remark: listed apart in the source
mouse RXFP1 [6] = molecular target: T3, mouse RXFP1; remark: listed apart in the source
human RXFP1 [7] = molecular target: T1, human RXFP1; remark: listed apart in the source
human RXFP2 [8] = molecular target: T2, human RXFP2; remark: listed apart in the source
mouse RXFP1 [9] = molecular target: T3, mouse RXFP1; remark: listed apart in the source
human RXFP1 [10] = molecular target: T1, human RXFP1; remark: listed apart in the source

T2 sequence (Q8WXD0 whole entry): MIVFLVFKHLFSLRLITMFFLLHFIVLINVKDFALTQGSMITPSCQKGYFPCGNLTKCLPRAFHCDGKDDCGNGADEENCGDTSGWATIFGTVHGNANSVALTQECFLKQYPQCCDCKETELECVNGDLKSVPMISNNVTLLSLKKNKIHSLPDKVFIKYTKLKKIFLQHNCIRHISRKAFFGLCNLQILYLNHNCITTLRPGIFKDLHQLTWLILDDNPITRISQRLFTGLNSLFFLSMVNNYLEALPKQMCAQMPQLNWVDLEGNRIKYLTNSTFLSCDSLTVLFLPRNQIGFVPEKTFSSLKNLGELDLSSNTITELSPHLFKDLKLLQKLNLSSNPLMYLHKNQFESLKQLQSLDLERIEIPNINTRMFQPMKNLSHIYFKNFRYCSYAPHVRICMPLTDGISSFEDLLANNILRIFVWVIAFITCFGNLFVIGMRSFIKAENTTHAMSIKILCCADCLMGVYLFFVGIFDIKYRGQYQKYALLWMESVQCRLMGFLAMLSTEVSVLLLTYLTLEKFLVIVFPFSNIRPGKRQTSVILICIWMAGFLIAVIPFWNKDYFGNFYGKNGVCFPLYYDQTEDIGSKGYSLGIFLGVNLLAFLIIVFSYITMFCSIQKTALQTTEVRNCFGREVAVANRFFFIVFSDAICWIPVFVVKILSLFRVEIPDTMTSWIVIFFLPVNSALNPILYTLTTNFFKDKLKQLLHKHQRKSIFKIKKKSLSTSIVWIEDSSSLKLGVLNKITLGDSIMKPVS

B2: RELAX0019 (Fc fusion)
chain 1: GGAGGACPPCPAPEFEGGPSVFLFPPKPKDTLMISRTPEVTCVVVDVSHEDPEVKFNWYVDGVEVHNAKTKPREEQYNSTYRVVSVLTVLHQDWLNGKEYKCKVSNKALPASIEKTISKAKGQPREPQVYTLPPCREEMTKNQVSLWCLVKGFYPSDIAVEWESNGQPENNYKTTPPVLDSDGSFFLYSKLTVDKSRWQQGNVFSCSVMHEALHNHYTQKSLSLSPGGGGGSGGGGSGGGGSGGGGGSQLYSALANKCCHVGCTKRSLARFC
chain 2: GGAGGACPPCPAPEFEGGPSVFLFPPKPKDTLMISRTPEVTCVVVDVSHEDPEVKFNWYVDGVEVHNAKTKPREEQYNSTYRVVSVLTVLHQDWLNGKEYKCKVSNKALPASIEKTISKAKGQPREPQVCTLPPSREEMTKNQVSLSCAVKGFYPSDIAVEWESNGQPENNYKTTPPVLDSDGSFFLVSKLTVDKSRWQQGNVFSCSVMHEALHNHYTQKSLSLSPGGGGGSGGGGSGGGGSGGGGGSSWMEEVIKLCGRELVRAQIAICGMSTWS
EC50 hRXFP1 (M), cAMP assay (human RXFP1 [4]): 5.81e-11 M
EC50 hRXFP2 (M), cAMP assay (human RXFP2 [5]): 4.4e-08 M
EC50 mRXFP1 (M), cAMP assay (mouse RXFP1 [6]): 2.24e-11 M
EC50 hRXFP1 (M), cAMP assay (human RXFP1 [7]): 5.81e-11 M
EC50 hRXFP2 (M), cAMP assay (human RXFP2 [8]): 4.4e-08 M
EC50 mRXFP1 (M), cAMP assay (mouse RXFP1 [9]): 2.24e-11 M
EC50 hRXFP1 (M), cAMP assay (human RXFP1 [1]): 3.57e-11 M
EC50 hRXFP2 (M), cAMP assay (human RXFP2 [2]): 3.42e-08 M
EC50 mRXFP1 (M), cAMP assay (mouse RXFP1 [3]): 9.1e-12 M

B3: RELAX0021 (Fc fusion)
chain 1: B2 chain 1 with C135S
chain 2: B2 chain 2 with C130Y
biological activity (EC50), cAMP assay (human RXFP1 [10]): ~80 pM
EC50 hRXFP1 (M), cAMP assay (human RXFP1 [1]): 8.27e-11 M
EC50 mRXFP1 (M), cAMP assay (mouse RXFP1 [3]): 4.14e-11 M

B4: RELAX0014 (recombinant murine Relaxin-1) (ligand)
chain 1: MRVSEEWMDGFIRMCGREYARELIKICGASVGR
chain 2: ESGGLMSQQCCHVGCSRRSIAKLYC
EC50 hRXFP1 (M), cAMP assay (human RXFP1 [4]): 4.47e-12 M
EC50 hRXFP2 (M), cAMP assay (human RXFP2 [5]): 1.78e-12 M
EC50 mRXFP1 (M), cAMP assay (mouse RXFP1 [6]): 2.37e-12 M
EC50 hRXFP1 (M), cAMP assay (human RXFP1 [7]): 4.47e-12 M
EC50 hRXFP2 (M), cAMP assay (human RXFP2 [8]): 1.78e-12 M
EC50 mRXFP1 (M), cAMP assay (mouse RXFP1 [9]): 2.37e-12 M
EC50 hRXFP1 (M), cAMP assay (human RXFP1 [1]): 4.47e-12 M
EC50 hRXFP2 (M), cAMP assay (human RXFP2 [2]): 1.78e-12 M
EC50 mRXFP1 (M), cAMP assay (mouse RXFP1 [3]): 2.37e-12 M

B6: RELAX0013 (recombinant human Relaxin-2) (ligand)
chain 1: DSWMEEVIKLCGRELVRAQIAICGMSTWS
chain 2: QLYSALANKCCHVGCTKRSLARFC
EC50 hRXFP1 (M), cAMP assay (human RXFP1 [4]): 1.15e-12 M
EC50 hRXFP2 (M), cAMP assay (human RXFP2 [5]): 1.75e-09 M
EC50 mRXFP1 (M), cAMP assay (mouse RXFP1 [6]): 7.54e-13 M
EC50 hRXFP1 (M), cAMP assay (human RXFP1 [7]): 1.15e-12 M
EC50 hRXFP2 (M), cAMP assay (human RXFP2 [8]): 1.75e-09 M
EC50 mRXFP1 (M), cAMP assay (mouse RXFP1 [9]): 7.54e-13 M
EC50 hRXFP1 (M), cAMP assay (human RXFP1 [1]): 1.15e-12 M
EC50 hRXFP2 (M), cAMP assay (human RXFP2 [2]): 1.75e-09 M
EC50 mRXFP1 (M), cAMP assay (mouse RXFP1 [3]): 7.54e-13 M

Continued, values first:

EC50 hRXFP1 (M), cAMP assay (human RXFP1 [1]): 5.88e-11 M
EC50 hRXFP2 (M), cAMP assay (human RXFP2 [2]): > 1.09e-07 M
EC50 mRXFP1 (M), cAMP assay (mouse RXFP1 [3]): 2.88e-11 M
B1: RELAX0091 (Fc fusion)
chain 1: QLYSALANKCCHVGCTKRSLARFCAAAGGGGSGGGGSGGGGSGGGGSACPPCPAPEFEGGPSVFLFPPKPKDTLMISRTPEVTCVVVDVSHEDPEVKFNWYVDGVEVHNAKTKPREEQYNSTYRVVSVLTVLHQDWLNGKEYKCKVSNKALPASIEKTISKAKGQPREPQVYTLPPCREEMTKNQVSLWCLVKGFYPSDIAVEWESNGQPENNYKTTPPVLDSDGSFFLYSKLTVDKSRWQQGNVFSCSVMHEALHNHYTQKSLSLSPG
chain 2: SWMEEVIKLCGRELVRAQIAICGMSTWSAAAGGGGSGGGGSGGGGSGGGGSACPPCPAPEFEGGPSVFLFPPKPKDTLMISRTPEVTCVVVDVSHEDPEVKFNWYVDGVEVHNAKTKPREEQYNSTYRVVSVLTVLHQDWLNGKEYKCKVSNKALPASIEKTISKAKGQPREPQVCTLPPSREEMTKNQVSLSCAVKGFYPSDIAVEWESNGQPENNYKTTPPVLDSDGSFFLVSKLTVDKSRWQQGNVFSCSVMHEALHNHYTQKSLSLSPG

EC50 hRXFP1 (M), cAMP assay (human RXFP1 [7]): 3.32e-11 M
EC50 hRXFP2 (M), cAMP assay (human RXFP2 [8]): 4.2e-08 M
EC50 mRXFP1 (M), cAMP assay (mouse RXFP1 [9]): 1.36e-11 M
EC50 hRXFP1 (M), cAMP assay (human RXFP1 [1]): 3.77e-11 M
EC50 hRXFP2 (M), cAMP assay (human RXFP2 [2]): 3.24e-08 M
EC50 mRXFP1 (M), cAMP assay (mouse RXFP1 [3]): 3.27e-11 M
B5: RELAX0023 (Fc fusion)
chain 1: DKTHTCPPCPAPEFEGGPSVFLFPPKPKDTLMISRTPEVTCVVVDVSHEDPEVKFNWYVDGVEVHNAKTKPREEQYNSTYRVVSVLTVLHQDWLNGKEYKCKVSNKALPASIEKTISKAKGQPREPQVYTLPPCREEMTKNQVSLWCLVKGFYPSDIAVEWESNGQPENNYKTTPPVLDSDGSFFLYSKLTVDKSRWQQGNVFSCSVMHEALHNHYTQKSLSLSPGGGGGSGGGGSGGGGSGGGGGSQLYSALANKCCHVGCTKRSLARFC
chain 2: DKTHTCPPCPAPEFEGGPSVFLFPPKPKDTLMISRTPEVTCVVVDVSHEDPEVKFNWYVDGVEVHNAKTKPREEQYNSTYRVVSVLTVLHQDWLNGKEYKCKVSNKALPASIEKTISKAKGQPREPQVCTLPPSREEMTKNQVSLSCAVKGFYPSDIAVEWESNGQPENNYKTTPPVLDSDGSFFLVSKLTVDKSRWQQGNVFSCSVMHEALHNHYTQKSLSLSPGGGGGSGGGGSGGGGSGGGGGSSWMEEVIKLCGRELVRAQIAICGMSTWS

biological activity (EC50), cAMP assay (human RXFP1 [10]): ~10 pM
EC50 hRXFP1 (M), cAMP assay (human RXFP1 [1]): 1.06e-11 M
EC50 hRXFP2 (M), cAMP assay (human RXFP2 [2]): 1.61e-08 M
EC50 mRXFP1 (M), cAMP assay (mouse RXFP1 [3]): 1.74e-11 M
B7: RELAX0117 (Fc fusion)
chain 1: QLYSALANKCCHVGCTKRSLARFCAAAGGGGSGGGGSGGGGSGGGGSACPPCPAPEFEGGPSVFLFPPKPKDTLMISRTPEVTCVVVDVSHEDPEVKFNWYVDGVEVHNAKTKPREEQYNSTYRVVSVLTVLHQDWLNGKEYKCKVSNKALPASIEKTISKAKGQPREPQVYTLPPCREEMTKNQVSLWCLVKGFYPSDIAVEWESNGQPENNYKTTPPVLDSDGSFFLYSKLTVDKSRWQQGNVFSCSVMHEALHNHYTQKSLSLSPGGGGGSGGGGSGGGGSGGGGGSQLYSALANKCCHVGCTKRSLARFC
chain 2: SWMEEVIKLCGRELVRAQIAICGMSTWSAAAGGGGSGGGGSGGGGSGGGGSACPPCPAPEFEGGPSVFLFPPKPKDTLMISRTPEVTCVVVDVSHEDPEVKFNWYVDGVEVHNAKTKPREEQYNSTYRVVSVLTVLHQDWLNGKEYKCKVSNKALPASIEKTISKAKGQPREPQVCTLPPSREEMTKNQVSLSCAVKGFYPSDIAVEWESNGQPENNYKTTPPVLDSDGSFFLVSKLTVDKSRWQQGNVFSCSVMHEALHNHYTQKSLSLSPGGGGGSGGGGSGGGGSGGGGGSSWMEEVIKLCGRELVRAQIAICGMSTWS
